# Source: patent US12723246 (UNIVERSITY OF MASSACHUSETTS, dated 2026)
# B1: purified dArc1 protein, bacterially produced, after cleavage of the HIS-MBP tag (other, Drosophila, UniProt Q7K1U0 1-254, looked up)
# chain: MAQLTQMTNEQLRELIEAVRAAAVGAAGSAAAAGGADASRGKGNFSACTHSFGGTRDHDVVEEFIGNIETYKDVEGISDENALKGISLLFYGMASTWWQGVRKEATTWKEAIALIREHFSPTKPAYQIYMEFFQNKQDDHDPIDTFVIQKRALLAQLPSGRHDEETELDLLFGLLNIKYRKHISRHSVHTFKDLLEQGRIIEHNNQEDEEQLATAKNTRGSKRTTRCTYCSFRGHTFDNCRKRQKDRQEEQHEE
# notes: Self-assembles into capsid-like structures of about 39.3±5.2 nm; also called His-MBP-dArc1 (before cleavage)
# Target: the molecule itself
# Assay: negative-stain EM of the precipitate formed after tag cleavage; self-assembly into capsid-like structures
# Excerpt: Given that dArc Iresembles a Gag protein, and that retroviral Gag proteins have the ability to auto-assemble into capsids, the precipitate was examined at the EM level by negative staining. The presence of round structures of about 39.3±5.2 nm was seen, which resembled HIV capsids. FIGS. 8A and 8B.
protein,measurement,value
B1,binding result,binds
